Data on seven molecules can be found in patent US20170008943A1 (Novo Nordisk, published 2017).

*1 amine or outer side, *2 acyl side, *3 side chain or, on linkers, in order; H or OH if unused. Side-chain parts run from the residue outwards. [ ]: non-standard residue; d: D form. The star is where a group is joined. γGlu = O=C(O)[C@H](CCC(=O)[*:2])N[*:1]; Desaminohistidyl = O=C(CCc1c[nH]cn1)*

The target of assay [1] is T1, human glucagon receptor (human, UniProt P47871 26-477). Put plainly: cell-based or functional assay.
Assay [2] addresses T1, human glucagon receptor. Put plainly: displacement of 125I-glucagon from BHK membranes with human glucagon receptor (SPA), Assay (II)(b).

T1 sequence (P47871 26-477): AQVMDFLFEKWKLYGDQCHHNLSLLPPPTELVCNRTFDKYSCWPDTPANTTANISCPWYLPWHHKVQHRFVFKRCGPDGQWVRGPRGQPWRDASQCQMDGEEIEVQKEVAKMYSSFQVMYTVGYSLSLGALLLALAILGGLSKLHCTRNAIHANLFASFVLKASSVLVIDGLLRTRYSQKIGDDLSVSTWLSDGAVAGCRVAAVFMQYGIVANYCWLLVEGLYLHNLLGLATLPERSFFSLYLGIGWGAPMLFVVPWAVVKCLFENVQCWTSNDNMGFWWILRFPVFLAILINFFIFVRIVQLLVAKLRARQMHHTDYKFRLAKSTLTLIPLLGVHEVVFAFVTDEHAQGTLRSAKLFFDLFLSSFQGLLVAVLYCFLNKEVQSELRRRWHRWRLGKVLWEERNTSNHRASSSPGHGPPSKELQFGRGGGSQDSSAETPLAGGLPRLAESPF

B1: N^ε16-[(4S)-4-[[(4S)-4-[[(4S)-4-[[(4S)-4-acetamido-4-carboxybutanoyl]amino]-4-carboxybutanoyl]amino]-4-carboxybutanoyl]amino]-4-carboxybutanoyl]-[Imp1, His3, … (peptide)
peptide: [Desaminohistidyl]SHGTFTSDYSKYLEK([γGlu-γGlu-γGlu-γGlu-Ac])RRAQEFVQWLLST-OH
SMILES: CC(=O)N[C@@H](CCC(=O)N[C@@H](CCC(=O)N[C@@H](CCC(=O)N[C@@H](CCC(=O)NCCCC[C@H](NC(=O)[C@H](CCC(=O)O)NC(=O)[C@H](CC(C)C)NC(=O)[C@H](Cc1ccc(O)cc1)NC(=O)[C@H](CCCCN)NC(=O)[C@H](CO)NC(=O)[C@H](Cc1ccc(O)cc1)NC(=O)[C@H](CC(=O)O)NC(=O)[C@H](CO)NC(=O)[C@@H](NC(=O)[C@H](Cc1ccccc1)NC(=O)[C@@H](NC(=O)CNC(=O)[C@H](Cc1c[nH]cn1)NC(=O)[C@H](CO)NC(=O)CCc1c[nH]cn1)[C@@H](C)O)[C@@H](C)O)C(=O)N[C@@H](CCCNC(=N)N)C(=O)N[C@@H](CCCNC(=N)N)C(=O)N[C@@H](C)C(=O)N[C@@H](CCC(N)=O)C(=O)N[C@@H](CCC(=O)O)C(=O)N[C@@H](Cc1ccccc1)C(=O)N[C@H](C(=O)N[C@@H](CCC(N)=O)C(=O)N[C@@H](Cc1c[nH]c2ccccc12)C(=O)N[C@@H](CC(C)C)C(=O)N[C@@H](CC(C)C)C(=O)N[C@@H](CO)C(=O)N[C@H](C(=O)O)[C@@H](C)O)C(C)C)C(=O)O)C(=O)O)C(=O)O)C(=O)O
notes: Imp written X under substitutions
In the case of B1, in the assay with human glucagon receptor [1], the “EC50 hGlucagonR (pM), CRE luciferase reporter in BHK cells” value (shortened to “EC50 hGlucagonR (pM)”) stood at 105 pM. This molecule had an IC50 with human glucagon receptor [2] of 24.4 nM.

B2: N^ε24-[(4S)-4-[[(4S)-4-[[(4S)-4-[[(4S)-4-acetamido-4-carboxybutanoyl]amino]-4-carboxybutanoyl]amino]-4-carboxybutanoyl]amino]-4-carboxybutanoyl]-[Imp1, His3, … (peptide)
peptide: [Desaminohistidyl]SHGTFTSDYSKYLDARRAQDFVK([γGlu-γGlu-γGlu-γGlu-Ac])WLLST-OH
SMILES: CC(=O)N[C@@H](CCC(=O)N[C@@H](CCC(=O)N[C@@H](CCC(=O)N[C@@H](CCC(=O)NCCCC[C@H](NC(=O)[C@@H](NC(=O)[C@H](Cc1ccccc1)NC(=O)[C@H](CC(=O)O)NC(=O)[C@H](CCC(N)=O)NC(=O)[C@H](C)NC(=O)[C@H](CCCNC(=N)N)NC(=O)[C@H](CCCNC(=N)N)NC(=O)[C@H](C)NC(=O)[C@H](CC(=O)O)NC(=O)[C@H](CC(C)C)NC(=O)[C@H](Cc1ccc(O)cc1)NC(=O)[C@H](CCCCN)NC(=O)[C@H](CO)NC(=O)[C@H](Cc1ccc(O)cc1)NC(=O)[C@H](CC(=O)O)NC(=O)[C@H](CO)NC(=O)[C@@H](NC(=O)[C@H](Cc1ccccc1)NC(=O)[C@@H](NC(=O)CNC(=O)[C@H](Cc1c[nH]cn1)NC(=O)[C@H](CO)NC(=O)CCc1c[nH]cn1)[C@@H](C)O)[C@@H](C)O)C(C)C)C(=O)N[C@@H](Cc1c[nH]c2ccccc12)C(=O)N[C@@H](CC(C)C)C(=O)N[C@@H](CC(C)C)C(=O)N[C@@H](CO)C(=O)N[C@H](C(=O)O)[C@@H](C)O)C(=O)O)C(=O)O)C(=O)O)C(=O)O
notes: as for B1
With B2, the “EC50 hGlucagonR (pM)” value with human glucagon receptor [1] was determined as 4 pM. This molecule came in with an IC50 with human glucagon receptor [2] of 0.9 nM.

B3: N^ε24-[(4S)-4-[[(4S)-4-[[(4S)-4-[[(4S)-4-acetamido-4-carboxybutanoyl]amino]-4-carboxybutanoyl]amino]-4-carboxybutanoyl]amino]-4-carboxybutanoyl]-[Imp1, His3, … (peptide)
peptide: [Desaminohistidyl]SHGTFTSDYSKYLESRRAQEFVK([γGlu-γGlu-γGlu-γGlu-Ac])WLLET-OH
SMILES: CC(=O)N[C@@H](CCC(=O)N[C@@H](CCC(=O)N[C@@H](CCC(=O)N[C@@H](CCC(=O)NCCCC[C@H](NC(=O)[C@@H](NC(=O)[C@H](Cc1ccccc1)NC(=O)[C@H](CCC(=O)O)NC(=O)[C@H](CCC(N)=O)NC(=O)[C@H](C)NC(=O)[C@H](CCCNC(=N)N)NC(=O)[C@H](CCCNC(=N)N)NC(=O)[C@H](CO)NC(=O)[C@H](CCC(=O)O)NC(=O)[C@H](CC(C)C)NC(=O)[C@H](Cc1ccc(O)cc1)NC(=O)[C@H](CCCCN)NC(=O)[C@H](CO)NC(=O)[C@H](Cc1ccc(O)cc1)NC(=O)[C@H](CC(=O)O)NC(=O)[C@H](CO)NC(=O)[C@@H](NC(=O)[C@H](Cc1ccccc1)NC(=O)[C@@H](NC(=O)CNC(=O)[C@H](Cc1c[nH]cn1)NC(=O)[C@H](CO)NC(=O)CCc1c[nH]cn1)[C@@H](C)O)[C@@H](C)O)C(C)C)C(=O)N[C@@H](Cc1c[nH]c2ccccc12)C(=O)N[C@@H](CC(C)C)C(=O)N[C@@H](CC(C)C)C(=O)N[C@@H](CCC(=O)O)C(=O)N[C@H](C(=O)O)[C@@H](C)O)C(=O)O)C(=O)O)C(=O)O)C(=O)O
notes: as for B1
As to B3, the “EC50 hGlucagonR (pM)” value in the assay with human glucagon receptor [1] stood at 17 pM. Also, in the assay with human glucagon receptor [2], the IC50 is 8.7 nM.

B4: N^ε20-[(4S)-4-[[(4S)-4-[[(4S)-4-[[(4S)-4-acetamido-4-carboxybutanoyl]amino]-4-carboxybutanoyl]amino]-4-carboxybutanoyl]amino]-4-carboxybutanoyl]-[Imp1, His3, … (peptide)
peptide: [Desaminohistidyl]SHGTFTSDYSKYLESRRAK([γGlu-γGlu-γGlu-γGlu-Ac])EFVQWLLST-OH
SMILES: CC(=O)N[C@@H](CCC(=O)N[C@@H](CCC(=O)N[C@@H](CCC(=O)N[C@@H](CCC(=O)NCCCC[C@H](NC(=O)[C@H](C)NC(=O)[C@H](CCCNC(=N)N)NC(=O)[C@H](CCCNC(=N)N)NC(=O)[C@H](CO)NC(=O)[C@H](CCC(=O)O)NC(=O)[C@H](CC(C)C)NC(=O)[C@H](Cc1ccc(O)cc1)NC(=O)[C@H](CCCCN)NC(=O)[C@H](CO)NC(=O)[C@H](Cc1ccc(O)cc1)NC(=O)[C@H](CC(=O)O)NC(=O)[C@H](CO)NC(=O)[C@@H](NC(=O)[C@H](Cc1ccccc1)NC(=O)[C@@H](NC(=O)CNC(=O)[C@H](Cc1c[nH]cn1)NC(=O)[C@H](CO)NC(=O)CCc1c[nH]cn1)[C@@H](C)O)[C@@H](C)O)C(=O)N[C@@H](CCC(=O)O)C(=O)N[C@@H](Cc1ccccc1)C(=O)N[C@H](C(=O)N[C@@H](CCC(N)=O)C(=O)N[C@@H](Cc1c[nH]c2ccccc12)C(=O)N[C@@H](CC(C)C)C(=O)N[C@@H](CC(C)C)C(=O)N[C@@H](CO)C(=O)N[C@H](C(=O)O)[C@@H](C)O)C(C)C)C(=O)O)C(=O)O)C(=O)O)C(=O)O
notes: as for B1
On to B4, for which the “EC50 hGlucagonR (pM)” value in the assay with human glucagon receptor [1] came to 41 pM. For the same molecule, the IC50 in the assay with human glucagon receptor [2] is 7.6 nM.

B5: N^ε24-[(4S)-4-[[(4S)-4-[[(4S)-4-[[(4S)-4-acetamido-4-carboxybutanoyl]amino]-4-carboxybutanoyl]amino]-4-carboxybutanoyl]amino]-4-carboxybutanoyl]-[Imp1, His3, … (peptide)
peptide: [Desaminohistidyl]SHGTFTSDYSKYLESRRAQDFVK([γGlu-γGlu-γGlu-γGlu-Ac])WLLST-OH
SMILES: CC(=O)N[C@@H](CCC(=O)N[C@@H](CCC(=O)N[C@@H](CCC(=O)N[C@@H](CCC(=O)NCCCC[C@H](NC(=O)[C@@H](NC(=O)[C@H](Cc1ccccc1)NC(=O)[C@H](CC(=O)O)NC(=O)[C@H](CCC(N)=O)NC(=O)[C@H](C)NC(=O)[C@H](CCCNC(=N)N)NC(=O)[C@H](CCCNC(=N)N)NC(=O)[C@H](CO)NC(=O)[C@H](CCC(=O)O)NC(=O)[C@H](CC(C)C)NC(=O)[C@H](Cc1ccc(O)cc1)NC(=O)[C@H](CCCCN)NC(=O)[C@H](CO)NC(=O)[C@H](Cc1ccc(O)cc1)NC(=O)[C@H](CC(=O)O)NC(=O)[C@H](CO)NC(=O)[C@@H](NC(=O)[C@H](Cc1ccccc1)NC(=O)[C@@H](NC(=O)CNC(=O)[C@H](Cc1c[nH]cn1)NC(=O)[C@H](CO)NC(=O)CCc1c[nH]cn1)[C@@H](C)O)[C@@H](C)O)C(C)C)C(=O)N[C@@H](Cc1c[nH]c2ccccc12)C(=O)N[C@@H](CC(C)C)C(=O)N[C@@H](CC(C)C)C(=O)N[C@@H](CO)C(=O)N[C@H](C(=O)O)[C@@H](C)O)C(=O)O)C(=O)O)C(=O)O)C(=O)O
notes: as for B1
Consider B5, for which the “EC50 hGlucagonR (pM)” value with human glucagon receptor [1] was found to be 12 pM. In the assay with human glucagon receptor [2], this molecule registered an IC50 of 6.2 nM.

B6: N^ε24-[(4S)-4-[[(4S)-4-[[(4S)-4-[[(4S)-4-acetamido-4-carboxybutanoyl]amino]-4-carboxybutanoyl]amino]-4-carboxybutanoyl]amino]-4-carboxybutanoyl]-[Imp1, His3, … (peptide)
peptide: [Desaminohistidyl]SHGTFTSDYSKYLDLRRAQDFVK([γGlu-γGlu-γGlu-γGlu-Ac])WLLST-OH
SMILES: CC(=O)N[C@@H](CCC(=O)N[C@@H](CCC(=O)N[C@@H](CCC(=O)N[C@@H](CCC(=O)NCCCC[C@H](NC(=O)[C@@H](NC(=O)[C@H](Cc1ccccc1)NC(=O)[C@H](CC(=O)O)NC(=O)[C@H](CCC(N)=O)NC(=O)[C@H](C)NC(=O)[C@H](CCCNC(=N)N)NC(=O)[C@H](CCCNC(=N)N)NC(=O)[C@H](CC(C)C)NC(=O)[C@H](CC(=O)O)NC(=O)[C@H](CC(C)C)NC(=O)[C@H](Cc1ccc(O)cc1)NC(=O)[C@H](CCCCN)NC(=O)[C@H](CO)NC(=O)[C@H](Cc1ccc(O)cc1)NC(=O)[C@H](CC(=O)O)NC(=O)[C@H](CO)NC(=O)[C@@H](NC(=O)[C@H](Cc1ccccc1)NC(=O)[C@@H](NC(=O)CNC(=O)[C@H](Cc1c[nH]cn1)NC(=O)[C@H](CO)NC(=O)CCc1c[nH]cn1)[C@@H](C)O)[C@@H](C)O)C(C)C)C(=O)N[C@@H](Cc1c[nH]c2ccccc12)C(=O)N[C@@H](CC(C)C)C(=O)N[C@@H](CC(C)C)C(=O)N[C@@H](CO)C(=O)N[C@H](C(=O)O)[C@@H](C)O)C(=O)O)C(=O)O)C(=O)O)C(=O)O
notes: as for B1
B6: the “EC50 hGlucagonR (pM)” value in the assay with human glucagon receptor [1] stood at 3 pM. Besides, in the assay with human glucagon receptor [2], the IC50 worked out at 0.5 nM.

B7: N^ε24-[(4S)-4-[[(4S)-4-[[(4S)-4-[[(4S)-4-acetamido-4-carboxybutanoyl]amino]-4-carboxybutanoyl]amino]-4-carboxybutanoyl]amino]-4-carboxybutanoyl]-[Imp1, His3, … (peptide)
peptide: [Desaminohistidyl]SHGTFTSDYSKYLDLRRAQEFVK([γGlu-γGlu-γGlu-γGlu-Ac])WLLST-OH
SMILES: CC(=O)N[C@@H](CCC(=O)N[C@@H](CCC(=O)N[C@@H](CCC(=O)N[C@@H](CCC(=O)NCCCC[C@H](NC(=O)[C@@H](NC(=O)[C@H](Cc1ccccc1)NC(=O)[C@H](CCC(=O)O)NC(=O)[C@H](CCC(N)=O)NC(=O)[C@H](C)NC(=O)[C@H](CCCNC(=N)N)NC(=O)[C@H](CCCNC(=N)N)NC(=O)[C@H](CC(C)C)NC(=O)[C@H](CC(=O)O)NC(=O)[C@H](CC(C)C)NC(=O)[C@H](Cc1ccc(O)cc1)NC(=O)[C@H](CCCCN)NC(=O)[C@H](CO)NC(=O)[C@H](Cc1ccc(O)cc1)NC(=O)[C@H](CC(=O)O)NC(=O)[C@H](CO)NC(=O)[C@@H](NC(=O)[C@H](Cc1ccccc1)NC(=O)[C@@H](NC(=O)CNC(=O)[C@H](Cc1c[nH]cn1)NC(=O)[C@H](CO)NC(=O)CCc1c[nH]cn1)[C@@H](C)O)[C@@H](C)O)C(C)C)C(=O)N[C@@H](Cc1c[nH]c2ccccc12)C(=O)N[C@@H](CC(C)C)C(=O)N[C@@H](CC(C)C)C(=O)N[C@@H](CO)C(=O)N[C@H](C(=O)O)[C@@H](C)O)C(=O)O)C(=O)O)C(=O)O)C(=O)O
notes: as for B1
Turning to B7, the “EC50 hGlucagonR (pM)” value with human glucagon receptor [1] was found to be 1 pM. In the assay with human glucagon receptor [2], this molecule showed an IC50 of 0.2 nM.

In general, IC50 refers to the concentration that gives 50% inhibition. High values mean lower potency, low ones higher potency.
